Substitutions are numbered along the chain they refer to. In names and notes the source's numbering stands.

The results in this text go back to US20260109742A1 (LUMEN BIOSCIENCE, published 2026).

Experiment [1] deals with PP1113 (MBP-5HVZ-PAPA-RN-29-H6). Nature of the experiment: hydrabody complex of smAKAP-linked VHH dimer with 5HVZ homodimer.
Protocol: Briefly, to Assess in vitro protease stability of clones, purified protein samples were prepared at 0.2 mg/mL in protease digestion buffer (20 mM Bis-Tris, 150 mM NaCl, 3 mM CaCl2 pH 6.0). The protease enzymes trypsin and chymotrypsin were diluted from 1 mg/mL stalk concentration to 0.2 mg/mL in protease digest buffer. Both the protein and enzyme were diluted 1:10 in protease digestion buffer. The digestion reactions were conducted by mixing 30 μL of diluted protein and 30 μL of diluted protease. The reactions were mixed by centrifugation for 30 seconds at high speed and incubated at 37° C. for 60 minutes with shaking at 900 rpm in an Eppendorf ThermoMixer. Reactions were quenched with an equal volume of stop buffer containing 2 mM PMSF and 2× Pierce protease inhibitor minitablet in PBS. The final concentration of each VHH homodimer after protease neutralization was 0.1 mg/mL. Samples were kept on ice for ELISA assay.
Digested protein samples were analyzed for binding activity via ELISA. High-binding ELISA plates were coated with 100 μl/well of 1 μg/mL SARS-COV-2 RBD in CBC binding buffer and incubated overnight at 4° C. Plates were washed 3× with PBS supplemented with 0.05% Tween-20 (PBS-tw), then blocked for 1 hour with 300 μl/well of blocking buffer (PBS-tw supplemented with 5% Non-fat dried milk). […] Absorbance was read at 450 nm with a Spectra Max M5 plate reader.
Experiment [2] has the same target. Nature of the experiment: analytical SEC, 5HVZ dimer with smAKAP clone at 1:2 molar ratio.

B1: PP1895 (S3B-C8_smAKAP-C70S_C78S_S3B-C8_H6) (bispecific antibody)
chain: MSGQVQLVESGGGLVQPGGSLRLSCAASGSIENIERMHWYRQAPGKQRELVAVIDSGGTTRYADSVKGRFTISRDNAKNTVYLQMNSLKPEDTAVYYCAAVWLTNAESTQEYWGQGTQVTVSSGGTVILEYAHRLSQDILSDALQQWASSGGGGSGGGGGQVQLVESGGGLVQPGGSLRLSCAASGSIENIERMHWYRQAPGKQRELVAVIDSGGTTRYADSVKGRFTISRDNAKNTVYLQMNSLKPEDTAVYYCAAVWLTNAESTQEYWGQGTQVTVSSGGSHHHHHH
Turning to B1, the binding result in experiment [1] is listed as “binds”.

B2: PP2455 (myctag-S3b-C8-smAKAP_R63E_C70S_C78G-S3b-C8-H6) (bispecific antibody)
chain: MEQKLISEEDLSGGQVQLVESGGGLVQPGGSLRLSCAASGSIENIERMHWYRQAPGKQRELVAVIDSGGTTRYADSVKGRFTISRDNAKNTVYLQMNSLKPEDTAVYYCAAVWLTNAESTQEYWGQGTQVTVSSGGGGSTVILEYAHELSQDILSDALQQWAGGGSGSQVQLVESGGGLVQPGGSLRLSCAASGSIENIERMHWYRQAPGKQRELVAVIDSGGTTRYADSVKGRFTISRDNAKNTVYLQMNSLKPEDTAVYYCAAVWLTNAESTQEYWGQGTQVTVSSHHHHHH
notes: also called R63E mutant
As to B2, the binding result in experiment [2] is “binds”.

B3: PP2456 (myctag-S3b-C8-smAKAP_R63E_C70S_W76S_C78G-S3b-C8-H6) (bispecific antibody)
chain: B2 chain with W161S
notes: also called pp 2456 (W76S)
For B3, in experiment [2], the binding result is recorded as “binds”.
